Experimental findings from patent publication US20190071480A1 (Biogen, published 2019) are described below.

For experiment [1], the target named is T1, extracellular domain of activin receptor type IIB (ActRIIBecd), biotinylated (Homo sapiens (Human), UniProt Q13705 27-117, amino-biotinylated with amine-PEG3-Biotin).
T1 construct: immobilised on a streptavidin-coated sensor chip; also called biotinylated ActRIIBecd; extracellular domain of ActRIIB
T1 sequence: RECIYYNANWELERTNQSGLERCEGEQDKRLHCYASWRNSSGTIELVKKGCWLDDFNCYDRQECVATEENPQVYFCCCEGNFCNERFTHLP
Put plainly: BIAcore SPR as Example 5 (method not restated); SD ±2.31 nM. The method, then: (§1) Biosensor experiments. In one embodiment, experiments were performed on a BIAcore™ T100/T200 instrument (Pharmacia Biosensor AB) in the multichannel mode (serial flow path involving flow cells 1+2+3+4). Flow rate was 10 μl/min; temperature was 25° C.; and data were recorded at 2.5 points/s. All four segments of a sensor chip CMS were coated with streptavidin (Sigma) to a density of 2000 pg/mm² (2000 resonance units) by the aminocoupling procedure. ActRIIBecd (10 mg) and amine-PEG3-Biotin (10 mg, Pierce, Rockford, Ill.) were dissolved in 200 μl H₂O and 10 mg NaCNBH₃ was added to prepare biotinylated ActRIIBecd. The reaction mixture was heated at 70° C. for 24 h, after that a further 10 mg NaCNBH₃ was added and the reaction was heated at 70° C. for another 24 h. After cooling to room temperature, the mixture was desalted with the spin column (3,000 molecular weight cut off (MWCO)). […] Sensograms were recorded during flow of the analyte (the ActRIIBecd-associated polypeptides (i.e., domains) as previously described) first through flow cell 1 (control) then through flow cell 2 (biotinylated ActRIIBecd). […] The sensograms obtained at 1.11, 3.33, 10, 30, and 90 nM analyte were evaluated for equilibrium binding, association rate, and dissociation rate by using the programs supplied with the instrument (BIA evaluation 2.1; Software Handbook. 1995; Pharmacia Biosensor AB).

In experiment [2] the target is T1, extracellular domain of activin …. The experiment in a line: Mean KD column of Table 5; method not restated (BIAcore as Example 5); species also listed in Table 4. A digest of the protocol: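 Using a streptavidin-captured, biotinylated ectodomain, binding of the domain polypeptides was monitored at 25° C, 10 μl/min. Association, dissociation and equilibrium values were evaluated from concentrations of 1.11, 3.33, 10, 30 and 90 nM.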

The target is the same in experiment [3]. The experiment in a line: BIAcore SPR as Example 5 (method not restated); SD ±2.39 nM. How it is done: as §1
For experiment [4] the target is unchanged. The experiment in a line: BIAcore SPR as Example 5 (method not restated); SD ±2.05 nM. The method, then:
as §1

The target is the same in experiment [5]. The experiment in a line: BIAcore SPR as Example 5 (method not restated); SD ±1.65 nM. The method, then: as §1
For experiment [6] the target is unchanged. Put plainly: BIAcore SPR as Example 5 (method not restated); SD ±2.88 nM. How it is done: as §1
The target is the same in experiment [7]. The experiment in a line: Mean KD column of Table 5; differs from Table 4 (22.31). How it is done: as §1
The target is the same in experiment [8]. The experiment in a line: BIAcore SPR as Example 5 (method not restated); SD ±1.99 nM. The method, then: as §1
Experiment [9] shares this target. Put plainly: BIAcore SPR as Example 5 (method not restated); SD ±1.12 nM. How it is done: as §1
For experiment [10] the target is unchanged. Put plainly: BIAcore SPR as Example 5 (method not restated); SD ±1.03 nM. The method, then:
as §1

Experiment [11] shares this target. Put plainly: BIAcore SPR, biotinylated ActRIIBecd on chip; SD ±24.42 nM. The method, then:
as §1

Experiment [12] shares this target. Put plainly: BIAcore SPR as Example 5 (method not restated); SD ±3.22 nM. How it is done: as §1
Experiment [13] has the same target. Put plainly: BIAcore SPR as Example 5 (method not restated); SD ±2.14 nM. The method, then:
as §1

For experiment [14] the target is unchanged. Put plainly: BIAcore SPR as Example 5 (method not restated); SD ±3.01 nM. How it is done: as §1
For experiment [15] the target is unchanged. The experiment in a line: BIAcore SPR as Example 5 (method not restated); SD ±2.09 nM. How it is done:
as §1

Experiment [16] shares this target. The experiment in a line: BIAcore SPR as Example 5 (method not restated); SD ±3.30 nM. The method, then: as §1
Experiment [17] shares this target. The experiment in a line: BIAcore SPR as Example 5 (method not restated); SD ±1.27 nM. How it is done:
as §1

Bridges are numbered along the chain shown (N, C = ends).

B1: SEQ ID NO: 230, cysteine pairs C23-C27^a (designed binder)
chain: VDFKDVGWNDHAVAPPGYHAFYCHGECPFPLADHLNSDNHAIVQTKVNSVGQAKRKGYKRLKSSCKRHPLY
modifications: disulfides C23-C27 (intra)
For the molecule B1, the Kd in experiment [1] and in experiment [2] was 17.9 nM throughout.

B2: SEQ ID NO: 254, cysteine pairs C23-C27^a, C58-C93^a, C59-C91^a (designed binder)
chain: VDFKDVGWNDHAVAPPGYHAFYCHGECPFPLADHLNSDNHAIVQTKVNSVNSKDPKACCVPTELSAPSPLYLDENEKPVLKNYQDMVVHGCGCR
modifications: disulfides C23-C27 (intra), C58-C93 (intra), C59-C91 (intra)
For B2, the Kd in experiment [3] and in experiment [2] was 19.1 nM in each case.

B3: SEQ ID NO: 254, cysteine pairs C23-C58^a (designed binder)
chain: VDFKDVGWNDHAVAPPGYHAFYCHGECPFPLADHLNSDNHAIVQTKVNSVNSKDPKACCVPTELSAPSPLYLDENEKPVLKNYQDMVVHGCGCR
modifications: disulfides C23-C58 (intra)
For the molecule B3, the dissociation constant Kd in experiment [4] and in experiment [2] was 44.4 nM in each case.

B4: SEQ ID NO: 254, cysteine pairs C23-C27^a, C58-C91^b, C59-C93^b (designed binder)
chain: VDFKDVGWNDHAVAPPGYHAFYCHGECPFPLADHLNSDNHAIVQTKVNSVNSKDPKACCVPTELSAPSPLYLDENEKPVLKNYQDMVVHGCGCR
modifications: disulfides C23-C27 (intra), C58-C91 (inter), C59-C93 (inter)
notes: homodimer by intermolecular disulfide
Take B4: the dissociation constant Kd in experiment [5] and in experiment [2] was 18.7 nM throughout.

B5: SEQ ID NO: 224, cysteine pairs C15-C44^a (designed binder)
chain: GQAKRKGYKRLKSSCKRHPLYVDFKDVGWNDHAVAPPGYHAFYCHGECPFPLADHLNSDNHAIVQTKVNSV
modifications: disulfides C15-C44 (intra)
Regarding B5, the Kd in experiment [6] and in [2] was 48.9 nM throughout.

B6: SEQ ID NO: 224, cysteine pairs C44-C48^a (designed binder)
chain: GQAKRKGYKRLKSSCKRHPLYVDFKDVGWNDHAVAPPGYHAFYCHGECPFPLADHLNSDNHAIVQTKVNSV
modifications: disulfides C44-C48 (intra)
On to B6, for which the values for the Kd in [7] and in experiment [8] were 21.5 nM and 22.3 nM, respectively.

B7: SEQ ID NO: 260, cysteine pairs C15-C80^a, C44-C112^a, C48-C114^a, C79-C79^b (designed binder)
chain: AQAKHKQRKRLKSSCKRHPLYVDFSDVGWNDWIVAPPGYHAFYCHGECPFPLADHLNSTNHAIVQTLVNSVNSKIPKACCVPTELSAISMLYLDENEKVVLKNYQDMVVEGCGCR
modifications: disulfides C15-C80 (intra), C44-C112 (intra), C48-C114 (intra), C79-C79 (inter)
notes: as for B4
B7: the dissociation constant Kd in experiment [9] and in experiment [2] was 6.56 nM each time.

B8: SEQ ID NO: 260, cysteine pairs C15-C15^b, C79-C114^a, C80-C112^a, C44-C48^a (designed binder)
chain: AQAKHKQRKRLKSSCKRHPLYVDFSDVGWNDWIVAPPGYHAFYCHGECPFPLADHLNSTNHAIVQTLVNSVNSKIPKACCVPTELSAISMLYLDENEKVVLKNYQDMVVEGCGCR
modifications: disulfides C15-C15 (inter), C79-C114 (intra), C80-C112 (intra), C44-C48 (intra)
notes: as for B4
Consider B8, for which the Kd in experiment [10] and in experiment [2] was 7.64 nM each time.

B9: Clone No. 12 domain (ActRIIBecd-associated polypeptide) (peptide)
chain: AQAKHKQYKRLKSSCKRHPLY
In [11], B9 had a Kd of 58.4 nM. In other words, the double-digit nanomolar range.

B10: SEQ ID NO: 248, cysteine pairs C41-C43^a (designed binder)
chain: NSKDPKACCVPTELSAPSPLYLDENEKPVLKNYQDMVVHGCGCRVDFKDVGWNDHAVAPPGYHAFYCHGECPFPLADHLNSDNHAIVQTKVNSV
modifications: disulfides C41-C43 (intra)
With B10, the Kd in experiment [12] and in experiment [2] was 47.8 nM in each case.

B11: SEQ ID NO: 248, cysteine pairs C67-C71^a, C8-C43^a, C9-C41^a (designed binder)
chain: NSKDPKACCVPTELSAPSPLYLDENEKPVLKNYQDMVVHGCGCRVDFKDVGWNDHAVAPPGYHAFYCHGECPFPLADHLNSDNHAIVQTKVNSV
modifications: disulfides C67-C71 (intra), C8-C43 (intra), C9-C41 (intra)
Turning to B11, the Kd in experiment [13] and in experiment [2] was 20 nM each time.

B12: SEQ ID NO: 248, cysteine pairs C67-C71^a, C8-C43^b, C9-C41^b (designed binder)
chain: NSKDPKACCVPTELSAPSPLYLDENEKPVLKNYQDMVVHGCGCRVDFKDVGWNDHAVAPPGYHAFYCHGECPFPLADHLNSDNHAIVQTKVNSV
modifications: disulfides C67-C71 (intra), C8-C43 (inter), C9-C41 (inter)
notes: as for B4
For B12, the Kd in [14] and in experiment [2] was 19.2 nM in each case.

B13: SEQ ID NO: 242, cysteine pairs C15-C15^b, C29-C62^a, C30-C64^a (designed binder)
chain: GQAKRKGYKRLKSSCKRHPLYNSKDPKACCVPTELSAPSPLYLDENEKPVLKNYQDMVVHGCGCR
modifications: disulfide 29-62, 30-64; also: homodimer via intermolecular C15-C15 disulfide
notes: as for B4
Consider B13, for which the Kd in experiment [15] and in [2] was 17.8 nM in each case.

B14: SEQ ID NO: 236, cysteine pairs C41-C59^a (designed binder)
chain: NSKDPKACCVPTELSAPSPLYLDENEKPVLKNYQDMVVHGCGCRGQAKRKGYKRLKSSCKRHPLY
modifications: disulfide 41-59
Take B14: the Kd in [16] and in experiment [2] was 49.5 nM throughout.

B15: SEQ ID NO: 236, cysteine pairs C59-C59^b, C8-C43^a, C9-C41^a (designed binder)
chain: NSKDPKACCVPTELSAPSPLYLDENEKPVLKNYQDMVVHGCGCRGQAKRKGYKRLKSSCKRHPLY
modifications: disulfide 9-41, 8-43; also: homodimer via intermolecular C59-C59 disulfide
notes: as for B4
Take B15: the Kd in experiment [17] and in [2] was 17.1 nM each time.
